Source: the Human Domainome abundance scans (Beltran et al. 2025)

B1: Chromodomain-helicase-DNA-binding protein 7, residues 2564 to 2605; numbered along this chain, Q9P2D1 (parent)
chain: DPDTRIPVINLEDGTRLVGEDAPKNKDLVEWLKLHPTYTVDM

Variants of: B1
Experiment: abundance fitness (aPCA) (normalised: wild type 0, dead -1); higher = more abundant; growth selection in yeast, the domain comes from the species named
Conditions: Homo sapiens

Abundance fitness: each site, then its substitutions
N25: T -0.131; I -0.326; G -0.157; M -0.086; D -0.122; P -0.4; A -0.206; R -0.1; W -0.418; L -0.252; C -0.274; S -0.101; K 0.095; F -0.249; Y -0.253
D27: M -0.727; K -0.517; W -0.563; F -0.405; S -1.11; G -0.38; V -0.448; T -0.526; Y -0.417; E -0.23; N 0.019; H -0.224; C -0.175; R -0.649; I -0.438; L -0.678; P -0.88; A -0.4
T15: N 0.117; V 0.023; H -0.128; R 0.064; P -0.252; F -0.218; K 0.051; D 0.018; A 0.069; M -0.264; L -0.055; G 0.081
D13: V -0.421; G -0.268; H -1.01; L -0.627; N 0.046; A -0.183
G19: M -0.442; S -0.468; R -0.59; L -0.518; K -0.262; Q -0.437; T -0.741; D -0.125; F -0.852; V -0.64; A -0.292; N -0.264; H -0.478; I -0.644; Y -0.45; E -0.093; W -0.638
V8: W -0.794; E -0.516; I -0.433; F -0.869; H -0.577; Q -0.384; C -0.577; Y -0.894; G -0.66; K -0.387; P -0.534; L -0.481; R -0.624; N -0.578; D -0.511; S -0.644; A -0.535
L11: F 0.015; M 0.355; G 0.094; R -0.104; Y 0.064; I 0.214; T 0.353; D 0.067; N 0.242; C -0.195; S 0.193; H 0.293; E 0.058; K 0.005
E20: W -0.447; K -0.125; L -0.369; A -0.163; M -0.235; V -0.195; H -0.498; I -0.208; D -0.059; R -0.189; S -0.159; T -0.027; F -0.365; C -0.264; Y -0.395; G -0.196; N -0.167
V18: R -0.081; C 0.074; Q 0.108; E 0.039; K -0.154; W -0.132; Y -0.065; I 0.155; P -0.372; G -0.04; H -0.047; F -0.165; S 0.076; D 0.147; N -0.06; M 0.091; L -0.131; T 0.118
K24: M 0.274; D -0.489; Q -0.243; R -0.188; I -0.165; T -0.047; G -0.552; V -0.475; Y -0.237; C -0.094; H -0.107; A -0.022; W -0.426; S -0.206; P -0.449; L -0.099; F -0.444
I9: Q -0.032; F -0.075; R 0.064; L 0.026; E -0.088; T -0.012; G -0.159; V 0.04; S -0.098; D -0.345; A -0.111; C -0.123
K26: A -0.068; M -0.278; D -0.258; E 0.154; I -0.255; L -0.559; P -0.56; Y -0.481; F -0.486; W -0.639; V -0.166; T -0.361; C -0.166; Q -0.039; N -0.276; S -0.106; R -0.081; H 0.203; G -0.208
L17: Y -0.217; Q -0.124; R -0.046; C -0.272; T -0.308; P -1.01; H -0.095; E -0.321; W -0.527; D -0.41; F -0.191; S -0.421; G -0.371; V -0.17; M 0.151; I -0.012; N -0.351
R16: H 0.071; N -0.128; S 0.132; M 0.502; W -0.173; Q -0.23; A -0.039; C 0.154; G -0.4; K 0.06; L -0.077; V 0.059
P7: G 0.227; F -1.07; D 0.133; N -0.145; V -0.238; C -0.347; Q -0.691; T -0.046; M -0.297; A 0.067; R 0.064; K 0.082
D21: Y -0.165; Q -0.018; L -0.161; P -0.378; M -0.161; E -0.207; N -0.054; T -0.246; A -0.279; W -0.442; K -0.134; V -0.508; F -0.17; C -0.07; S -0.093; I -0.512; H -0.109; R -0.316
L28: D -0.432; I -0.129; E -0.41; F -0.24; G -0.401; A -0.292; H -0.134
G14: A -0.115; W -0.084; L -0.424; S -0.141; F -0.277; Q 0.007; T -0.275; C -0.226; E -0.012; R -0.168; D -0.146; M 0.114; N 0.152
R5: V -0.372; S -0.303; F -0.451; G -0.374; N -0.349; D -0.709; Q -0.493; P -0.004; I -0.39; L -0.844; T -0.244; K 0.124; M -0.242; W -0.906
N10: W -0.549; Y -0.989; L -1.01; M -0.598; C -0.054; E -0.786; K -0.341; I -1.4; S -0.025; T -0.466; V -0.852; H -0.298; G -0.388; A -0.598; Q -0.738; D -0.154; R -0.409; F -0.85
I6: Y -0.699; D -0.201; F -0.283; V 0.262; L -0.697; H -0.133; N -0.419; S -0.189; E -0.276
P23: A -1.35; S -0.79; H -0.679; L -0.725; V -0.658; Q -0.252; K -0.515; I -0.496; W -1.09; N -0.915; F -0.784; M -0.654; R -0.843; Y -1.1; E -0.684; C -0.497
A22: L -0.539; V -0.79; P -0.622; F -0.466; S -0.358; R -0.477; Y -1.03; I -0.483; D -0.565; C -0.168; M -0.673; W -1.04; T -0.527; E -0.839; N -0.519; H -0.306
